Test results taken from paper PMC7948472 (2020).

T1: Histone H4 methylated peptide, SGRGK(me3)GGKGLGKGGAK (trimethyl-lysine K(me3) at K5)
T1 peptide: SGRGKGGKGLGKGGAK


Molecular target: T1, Histone H4 methylated peptide, …
Assay: SPR

Row | Kd [mM] | Binder
1 | 1.6 | C9 Fab (Fab, V domains shown) VH: QSVEESGGRLVTPGTPLTLTCTVSGFSLTSYDMSWVRQAPGKGLEYIGFISSTTGGTYYASWAKGRFTISKTSTTVDLKITSPTTEDTATYFCAAGSWYNMWGPGTLVTVSS VL: AQVLTQTPSSVSAAVGGTVTINCQASQSVYNNNWLGWYQQKPGQPPKLLIYKASTLASGVPSRFRGSGSGTQFTLTISDVQCDDAATYYCAGGYNGNIFPFGGGTEVVVT
2 | 0.87 | D6 Fab (Fab, V domains shown) VH: QTVKESGGRLVTPGGTLTLTCTVSGFSLSRYAMSWVRQAPGEGLEYIGWINTYGSAYYASWVNGRFTISKTSTTMDLKMTSLTAADTATYFCVRWFADGGMDPWGPGTLVTVSS VL: ALVLTQTPSPVSAAVGGAVSISCQSSQNIYKDNELSWYQQKPGQPPKLLIYKASTLASGVPSRFSGSGSGTQFTLTISGVQCDDAATYYCQGSRYNNGWDSGFGGGTEVVVK
